{"source": "patent US9993529B2", "about": "“Stable formulations of a hyaluronan-degrading enzyme” (Halozyme, Inc., priority 2011, dated 2018)", "test": "RP-HPLC insulin apparent solubility / percent recovery (content)", "details": "for Solubility of Lispro: 7 days at 2-8° C.", "method_in_brief": "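Vial samples withdrawn at each time point, centrifuged, held at 4 °C, run in duplicate by RP-HPLC. Apparent solubility = combined insulin main and desamido peak areas as percent versus standards/initial formulation; purity = main insulin peak as percent of all insulin species.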", "data": [{"substance": "insulin Lispro: LysB28, ProB29 human insulin analog", "values": [{"measurement": "Solubility of Lispro", "setting": "0.2% methylparaben + […] m-cresol, pH 6.6, NaCl 50 mM", "value": 42.0, "unit": "%"}, {"measurement": "Solubility of Lispro", "setting": "0.2% methylparaben + […] m-cresol, pH 6.6, NaCl 80 mM", "value": 28.2, "unit": "%"}, {"measurement": "Solubility of Lispro", "setting": "0.2% methylparaben + […] m-cresol, pH 6.6, NaCl 110 mM", "value": 24.1, "unit": "%"}, {"measurement": "Solubility of Lispro", "setting": "0.2% methylparaben + […] m-cresol, pH 6.6, NaCl 140 mM", "value": 25.9, "unit": "%"}, {"measurement": "Solubility of Lispro", "setting": "0.2% methylparaben + […] m-cresol, pH 6.8, NaCl 50 mM", "value": 82.3, "unit": "%"}, {"measurement": "Solubility of Lispro", "setting": "0.2% methylparaben + […] m-cresol, pH 6.8, NaCl 80 mM", "value": 62.6, "unit": "%"}, {"measurement": "Solubility of Lispro", "setting": "0.2% methylparaben + […] m-cresol, pH 6.8, NaCl 110 mM", "value": 47.8, "unit": "%"}, {"measurement": "Solubility of Lispro", "setting": "0.2% methylparaben + […] m-cresol, pH 6.8, NaCl 140 mM", "value": 42.0, "unit": "%"}, {"measurement": "Solubility of Lispro", "setting": "0.2% methylparaben + […] m-cresol, pH 7.0, NaCl 50 mM", "value": 95.3, "unit": "%"}, {"measurement": "Solubility of Lispro", "setting": "0.2% methylparaben + […] m-cresol, pH 7.0, NaCl 80 mM", "value": 98.1, "unit": "%"}, {"measurement": "Solubility of Lispro", "setting": "0.2% methylparaben + […] m-cresol, pH 7.0, NaCl 110 mM", "value": 94.1, "unit": "%"}, {"measurement": "Solubility of Lispro", "setting": "0.2% methylparaben + […] m-cresol, pH 7.0, NaCl 140 mM", "value": 65.6, "unit": "%"}, {"measurement": "Solubility of Lispro", "setting": "0.2% methylparaben + […] m-cresol, pH 7.2, NaCl 50 mM", "value": 95.7, "unit": "%"}, {"measurement": "Solubility of Lispro", "setting": "0.2% methylparaben + […] m-cresol, pH 7.2, NaCl 80 mM", "value": 97.9, "unit": "%"}, {"measurement": "Solubility of Lispro", "setting": "0.2% methylparaben + […] m-cresol, pH 7.2, NaCl 110 mM", "value": 99.6, "unit": "%"}, {"measurement": "Solubility of Lispro", "setting": "0.2% methylparaben + […] m-cresol, pH 7.2, NaCl 140 mM", "value": 98.0, "unit": "%"}, {"measurement": "Solubility of Lispro", "setting": "0.2% methylparaben + […] m-cresol, pH 7.4, NaCl 50 mM", "value": 95.6, "unit": "%"}, {"measurement": "Solubility of Lispro", "setting": "0.2% methylparaben + […] m-cresol, pH 7.4, NaCl 80 mM", "value": 98.2, "unit": "%"}, {"measurement": "Solubility of Lispro", "setting": "0.2% methylparaben + […] m-cresol, pH 7.4, NaCl 110 mM", "value": 99.9, "unit": "%"}, {"measurement": "Solubility of Lispro", "setting": "0.2% methylparaben + […] m-cresol, pH 7.4, NaCl 140 mM", "value": 98.5, "unit": "%"}, {"measurement": "Solubility of Lispro", "setting": "0.2% methylparaben + […] m-cresol, pH 7.6, NaCl 50 mM", "value": 95.7, "unit": "%"}, {"measurement": "Solubility of Lispro", "setting": "0.2% methylparaben + […] m-cresol, pH 7.6, NaCl 80 mM", "value": 98.3, "unit": "%"}, {"measurement": "Solubility of Lispro", "setting": "0.2% methylparaben + […] m-cresol, pH 7.6, NaCl 110 mM", "value": 100.2, "unit": "%"}, {"measurement": "Solubility of Lispro", "setting": "0.2% methylparaben + […] m-cresol, pH 7.6, NaCl 140 mM", "value": 98.8, "unit": "%"}, {"measurement": "Solubility of Lispro", "setting": "0.2% phenol + […] m-cresol, pH 6.6, NaCl 50 mM", "value": 52.8, "unit": "%"}, {"measurement": "Solubility of Lispro", "setting": "0.2% phenol + […] m-cresol, pH 6.6, NaCl 80 mM", "value": 32.8, "unit": "%"}, {"measurement": "Solubility of Lispro", "setting": "0.2% phenol + […] m-cresol, pH 6.6, NaCl 110 mM", "value": 26.0, "unit": "%"}, {"measurement": "Solubility of Lispro", "setting": "0.2% phenol + […] m-cresol, pH 6.8, NaCl 50 mM", "value": 91.4, "unit": "%"}, {"measurement": "Solubility of Lispro", "setting": "0.2% phenol + […] m-cresol, pH 6.8, NaCl 80 mM", "value": 65.1, "unit": "%"}, {"measurement": "Solubility of Lispro", "setting": "0.2% phenol + […] m-cresol, pH 6.8, NaCl 110 mM", "value": 44.9, "unit": "%"}, {"measurement": "Solubility of Lispro", "setting": "0.2% phenol + […] m-cresol, pH 6.8, NaCl 140 mM", "value": 40.4, "unit": "%"}, {"measurement": "Solubility of Lispro", "setting": "0.2% phenol + […] m-cresol, pH 7.0, NaCl 50 mM", "value": 97.4, "unit": "%"}, {"measurement": "Solubility of Lispro", "setting": "0.2% phenol + […] m-cresol, pH 7.0, NaCl 80 mM", "value": 95.5, "unit": "%"}, {"measurement": "Solubility of Lispro", "setting": "0.2% phenol + […] m-cresol, pH 7.0, NaCl 110 mM", "value": 75.2, "unit": "%"}, {"measurement": "Solubility of Lispro", "setting": "0.2% phenol + […] m-cresol, pH 7.0, NaCl 140 mM", "value": 65.3, "unit": "%"}, {"measurement": "Solubility of Lispro", "setting": "0.2% phenol + […] m-cresol, pH 7.2, NaCl 50 mM", "value": 97.6, "unit": "%"}, {"measurement": "Solubility of Lispro", "setting": "0.2% phenol + […] m-cresol, pH 7.2, NaCl 80 mM", "value": 97.4, "unit": "%"}, {"measurement": "Solubility of Lispro", "setting": "0.2% phenol + […] m-cresol, pH 7.2, NaCl 110 mM", "value": 95.2, "unit": "%"}, {"measurement": "Solubility of Lispro", "setting": "0.2% phenol + […] m-cresol, pH 7.2, NaCl 140 mM", "value": 90.8, "unit": "%"}, {"measurement": "Solubility of Lispro", "setting": "0.2% phenol + […] m-cresol, pH 7.4, NaCl 50 mM", "value": 97.7, "unit": "%"}, {"measurement": "Solubility of Lispro", "setting": "0.2% phenol + […] m-cresol, pH 7.4, NaCl 80 mM", "value": 97.6, "unit": "%"}, {"measurement": "Solubility of Lispro", "setting": "0.2% phenol + […] m-cresol, pH 7.4, NaCl 110 mM", "value": 97.0, "unit": "%"}, {"measurement": "Solubility of Lispro", "setting": "0.2% phenol + […] m-cresol, pH 7.4, NaCl 140 mM", "value": 96.9, "unit": "%"}, {"measurement": "Solubility of Lispro", "setting": "0.2% phenol + […] m-cresol, pH 7.6, NaCl 50 mM", "value": 97.5, "unit": "%"}, {"measurement": "Solubility of Lispro", "setting": "0.2% phenol + […] m-cresol, pH 7.6, NaCl 80 mM", "value": 97.7, "unit": "%"}, {"measurement": "Solubility of Lispro", "setting": "0.2% phenol + […] m-cresol, pH 7.6, NaCl 110 mM", "value": 97.3, "unit": "%"}, {"measurement": "Solubility of Lispro", "setting": "0.2% phenol + […] m-cresol, pH 7.6, NaCl 140 mM", "value": 96.8, "unit": "%"}, {"measurement": "Solubility (% of 120 U/mL)", "setting": "2-8° C., pH 7.0, after 1 week at 80, 110 or 140 mM NaCl", "value": "below 65%"}, {"measurement": "Solubility of Lispro", "setting": "[…] phenol + […] m-cresol, pH 6.6, NaCl 50 mM", "value": 60.3, "unit": "%"}, {"measurement": "Solubility of Lispro", "setting": "[…] phenol + […] m-cresol, pH 6.6, NaCl 80 mM", "value": 43.3, "unit": "%"}, {"measurement": "Solubility of Lispro", "setting": "[…] phenol + […] m-cresol, pH 6.6, NaCl 110 mM", "value": 24.2, "unit": "%"}, {"measurement": "Solubility of Lispro", "setting": "[…] phenol + […] m-cresol, pH 6.6, NaCl 140 mM", "value": 27.7, "unit": "%"}, {"measurement": "Solubility of Lispro", "setting": "[…] phenol + […] m-cresol, pH 6.8, NaCl 50 mM", "value": 93.6, "unit": "%"}, {"measurement": "Solubility of Lispro", "setting": "[…] phenol + […] m-cresol, pH 6.8, NaCl 80 mM", "value": 60.8, "unit": "%"}, {"measurement": "Solubility of Lispro", "setting": "[…] phenol + […] m-cresol, pH 6.8, NaCl 110 mM", "value": 44.9, "unit": "%"}, {"measurement": "Solubility of Lispro", "setting": "[…] phenol + […] m-cresol, pH 6.8, NaCl 140 mM", "value": 35.9, "unit": "%"}, {"measurement": "Solubility of Lispro", "setting": "[…] phenol + […] m-cresol, pH 7.0, NaCl 50 mM", "value": 98.7, "unit": "%"}, {"measurement": "Solubility of Lispro", "setting": "[…] phenol + […] m-cresol, pH 7.0, NaCl 80 mM", "value": 96.4, "unit": "%"}, {"measurement": "Solubility of Lispro", "setting": "[…] phenol + […] m-cresol, pH 7.0, NaCl 110 mM", "value": 77.0, "unit": "%"}, {"measurement": "Solubility of Lispro", "setting": "[…] phenol + […] m-cresol, pH 7.0, NaCl 140 mM", "value": 61.2, "unit": "%"}, {"measurement": "Solubility of Lispro", "setting": "[…] phenol + […] m-cresol, pH 7.2, NaCl 50 mM", "value": 100.5, "unit": "%"}, {"measurement": "Solubility of Lispro", "setting": "[…] phenol + […] m-cresol, pH 7.2, NaCl 80 mM", "value": 99.2, "unit": "%"}, {"measurement": "Solubility of Lispro", "setting": "[…] phenol + […] m-cresol, pH 7.2, NaCl 110 mM", "value": 97.3, "unit": "%"}, {"measurement": "Solubility of Lispro", "setting": "[…] phenol + […] m-cresol, pH 7.2, NaCl 140 mM", "value": 93.1, "unit": "%"}, {"measurement": "Solubility of Lispro", "setting": "[…] phenol + […] m-cresol, pH 7.4, NaCl 50 mM", "value": 100.8, "unit": "%"}, {"measurement": "Solubility of Lispro", "setting": "[…] phenol + […] m-cresol, pH 7.4, NaCl 80 mM", "value": 101.8, "unit": "%"}, {"measurement": "Solubility of Lispro", "setting": "[…] phenol + […] m-cresol, pH 7.4, NaCl 110 mM", "value": 100.7, "unit": "%"}, {"measurement": "Solubility of Lispro", "setting": "[…] phenol + […] m-cresol, pH 7.4, NaCl 140 mM", "value": 98.4, "unit": "%"}, {"measurement": "Solubility of Lispro", "setting": "[…] phenol + […] m-cresol, pH 7.6, NaCl 50 mM", "value": 100.9, "unit": "%"}, {"measurement": "Solubility of Lispro", "setting": "[…] phenol + […] m-cresol, pH 7.6, NaCl 80 mM", "value": 102.1, "unit": "%"}, {"measurement": "Solubility of Lispro", "setting": "[…] phenol + […] m-cresol, pH 7.6, NaCl 110 mM", "value": 101.6, "unit": "%"}, {"measurement": "Solubility of Lispro", "setting": "[…] phenol + […] m-cresol, pH 7.6, NaCl 140 mM", "value": 101.3, "unit": "%"}]}]}
